Experiment: label from the status in PepcDB records

MILMHPKGLIKRDDIIYLSIFIVVFLIALRNYMISPPYTLGDTTILPSTNPGLYTPSATIQYYLSLLIGENNLIKTLNFLAFIIAPISIYFTLGRKGDFFKRLILPLIFTLNPISISIFYDGNGEGILLVYSLQPLVYYLTYKMLYEVKNRLKYLIYLSIVEVVGQIFFFQMFLFSLFFQLPFILLSIKERKYLFLVYPILADLLGFLSELSWEVYLYIGVVPSVLVSPSNTLVRLGLAYYSTIVSALLFAIVITTAFIYRNKYALATLTSVGILLVIYAILQNFRFDIPVISALLAAITTFQTKVYLLSFGLLDLSLFYLKRTREFIIPLLSLLLIVLLVNTGGLQATTYSIFSFKPQPMPSWYYELYDYLSQNNPNNVYSLATQYQYLQYLPGFSGFIYDTSFIHNLTNPFYGMKYLISTSQMNYTGLRLVKTFGPVLVYYNENFTGLVHYLNGSPVSNYSISDMEIRIYDGNPPFVVSLPYSEYWTSAENYNGFLELTTNISQNSLTSLVHELFFVSLFFLILPFILLILEKTPMKTLIVGR
protein production: failed

MPDMPPTETNAIQDRLPRTTNSVEDTMALGARIAQGLSPGAVVALYGDLGTGKTHFVKGVAQGLGLPPAEVRSPTFTILAVHDDGDRPLYHFDAYRVQTPDEFVELGFETYVHGDGLTCIEWAGRVADLLPADTVPLQFHHVAPSTRRITLGAPDSSSSEDDR
protein production: failed

MTRFWTRLIVVLTVILGVNYVAWRWMASLNWEAWWIAVPLVIAETYSLIDVMLFGLTVWNIKFRKPPPPPPADATVDVFITTYNEPLDLVMTTALAAKEIRWPHSTWILDDGDRPEMRELAESNGIGYVTRGADWTPDMPRHAKAGNLNNALMLTSGEYLLILDADQIPEPDILDKTLGYFNDDKVALVQTPQYFINVPADDPLGSQAPLFYGPIQQGKDGWNAAFFCGSNAILRREALMQLGLVGYVKATEKSVRRALAASRTAIRKARRSPEAENPLVEQMLNEVEAATESAQKELEAGASLSEITYRVRRQVDDAVRTLVAADFSALQSDLEEIAAMELAHVGESGVTTVATDAVDRMSGRDWSPLGALESVHAVLDAISVERTDEAQPIMPLATISVTEDMATAMRLHGLGWKSVYHHEILANGLAPEDVKTMLTQRLRWAQGTMQVLLRENPLVQRRLTWGQRLMYFSTMWTYLSGFAAVVYFAAPIIYLTLGILPVNSISSDFFIRFIPFMVVNQLLFLVAGHGIPTWRGQQYSLALFPTWIKACTTAARNVWFGRPLGFAVTPKARQSGGPSWSLIRPQIIVAVLLAVALIVGLIRLLAGMSEPLGTLVNVAWVAFDLVVLSVLVKAVLYKGFVPEVVGPERPEERNADAV
protein production: failed

MAGEFRLLSHLCSRGSKVGELAQDTRTSLKTSWYLLGPAFVAAIAYVDPGNVAANVSSGAQFGYLLLWVIVAANVMAALVQYLSAKLGLVTGRSLPEAIGKRMGRPARLAYWAQAEIVAMATDVAEVIGGAIALRIMFNLPLPIGGIITGVVSLLLLTIQDRRGQRLFERVITALLLVIAIGFTASFFVVTPPPNAVLGGLAPRFQGTESVLLAAAIMGATVMPHAVYLHSGLARDRHGHPDPGPQRRRLLRVTRWDVGLAMLIAGGVNAAMLLVAALNMRGRGDTASIEGAYHAVHDTLGATIAVLFAVGLLASGLASSSVGAYAGAMIMQGLLHWSVPMLVRRLITLGPALAILTLGFDPTRTLVLSQVVLSFGIPFAVLPLVKLTGSPAVMGGDTNHRATTWVGWVVAVMVSLLNVMLIYLTVTG
protein production: failed

MYVIIMGAGRIGTLVAKMLENSGHDVAIIEMNKDRARAVSDIVSGLVIEGDATDQNILESANVRNADAFVALTGKDDANILACILAKHLNPRIMTILRITDPRKKKIFEEVKDLKKYFDVVVSPEDIAANYIFRVVITPGFDRVLLPREGAEIIQFHIDENSKVAGKAVKDLNLPRDSLIIAIYDEKGNLIIPSGETILPKRGTVVVFAKDSALKEIKKIMEEKVEESEE
protein production: failed

MIYLFSHAGLRDLRDFIDRSTLFAFDLDGTLAPIVSDPAGIMIPPDVHERLVRLNGTASVAVVTGRARVDAARHLGFAPRFLVGNHGAEGLPGADAAEREFIGLCRGWMTQLGELLPEGEGTGIVMEDKSATLSLHYRNAPDRENAHQRILAAVSRLLPAPRRVSGKLVENLVPAAAPHKGDALRCIMRHLGCARALFVGDDVTDEDVFRLGDEAIFGIRVGNSGGSAARYFIRGQDEMAPLLDEILAVL
protein production: failed

MQQKLENIKFVITDVDGVLTDGQLHYDANGEAIKSFHVRDGLGIKMLMDADIQVAVLSGRDSPILRRRIADLGIKLFFLGKLEKETACFDLMKQAGVTAEQTAYIGDDSVDLPAFAACGTSFAVADAPIYVKNAVDHVLSTHGGKGAFREMSDMILQAQGKSSVFDTAQGFLKSVKSMGQ
protein production: not failed

MMAQRSLFQCESSVDEELDRMEIRTLTRYGENRRRDKGVPIECDCNAKVVVVTSLDPVTTGKLFFSCPYEISDGPGQGCGFKRWWTVALCDEFDMIKEETTEMKKDLEAANKRVESLAEKIFLMEKKFETLEKKYESLNKYL
protein production: failed

MVPPRVSLLLRAETVVRPSVSAFPRKLPLVDMTAADALVGTTLAHRYRVESKIANGGMATVFLAHDLRLDRRVALKVMHANLARDPQFVQRFINEALAVAKLSHPNVVQVYDQGSDQGHVYLAMEYVAGQTLRAALKARTRFSPAEALRIMVPILAGLGAAHQAGMVHRDMKPENVLITHDGQIKVADFGLARAAEASQQGLTKTGTLMGTAAYLSPEQITHSTADARSDVYACGIMLYELLTGRQPHTGDSPIAVAYQHVNEDVPRPSRVVPGIPPEVDSLVVRATERDPAYRLANAGQFLAAVFAAQKALDEQPSAAVTSVMEMAPAPAGDTAEDSDNATRTLQGVELPPVEYDDYEDDRPPRPSLRTPLLVATVLLLVVAVGFGWWMVDGRYETVPDLVGVESDEARRDLRMLGFRVQTAEEPAYSDEAPPGTVAATDPEAGSRLLPDTLVTLILSAGPQYVEMPDVEGASVAEARDALKEVGLTDIVEDEITSFDNPPGTVITTKPAPGEKANREESVTLTISAGFPMPNVVGQKVDDARRLLESSDLEVTVVEEHHDEVPEGHVISQEPEAETTVGAGQSVTLTVSSGPELVEVPDIRGWKVDKARKELEERGFEVTVHQVIGNRVGDYNPKGEAPKGSTIEIWTSPFGRERDRDRGREDRLWIGLD
protein production: failed

MAENAWVRVCALQELPELGARVLDVEGLPPIAIFRTASDQVFALRDRCPHKGGPLSQGIVAGETVTCPLHGWAIALQSGQACAPDVGCAPRYPVKVEAGAVWIVLQPVLQADAVAEPAALEHHHHHH
protein production: failed

QRALVLTAARGRGKSAATGLSIAGLIEKLRERKEKSIRIIVTAPSIASASQVMSFAKLGLEALGEELSVKVSDTGHIKSLRGDYFKLEYVPPDAAIEDEGELLIIDEAAALGINYIDLALRAWKKVALVTTVHGYEGSNKAFLRYLRRLIESKRIRVKWVNMEQPLRYAKGDPIEKWLYDALLLD
protein production: failed

MAEKNAYTVAQLADEYFERMIAGRWKHPNIVRSRIEKDIKPAIGSLKVEDVKPRHIDDVLKAVMKRGAPSIANDTLRWLKRMFNYAIKRHIIEYNPAAAFDPGDAGGKEKSLEHHHHHH
protein production: not failed

MAQIVTSTKSCTVNPLRMSQPLGAALAFMGLRNCMPLLHGSQGCTSFGLVLFVRHFRESIPLQTTAMSEVATVLGGFENVEQAIVNIVGRTKPDVIGICTTGVTEIKGDDLDGYIKMVRANHPELANVALVPVSTPDFKGAFEDGFAATVTRIVETLVETPAEGAAPDADRINVLAGSHLTPGDIDELRDIIEAFGLVPTFLPDISGSLDGHVPDDFTPTTHGGVSVAEVVAMGGAGHTLAFGEHMRKAAAALEAKAGVPFTLLSRVTGLAAADELMATLAKISGRPVPPKYRRQRSQLVDAMLDGHFYFGGKSVAIGAEPDMLLNIGGWLADMGCTVSAAVTTTTSPSLAQVPSDEVLIGDLEDLERRAEDCDLLVTHSHGRQAAERLSVPLFRMGLPMFDRLGAVHQVAVGYRGTRDLIFAIGNLFIANIKEPDVNSWRSASACPDQTDAPAKAH
protein production: failed

MMDSHCRVRAPGAAQPADCPPPTTQHAALAARLGHARLHTLYDQATWSEGPAWWEAQRTLVWSDVVGRRVLGWREDGAVDVLLDATAFTNGNAVDTQQRLVHCEHGRRAITRSEVDGRAHLLVGRFEGKRLNSPNDLIVARDGAIWFTDPPFGLRKPSQGCPGPQELDHHGVYRLPPDGGALQCMVNLDHPNGLAFSPDERVLYVSQTPEGGPGAPEITALDWHDGALHNRRRFAVVPEGLPDGFCVDCQGWLWSSSGAGVCVFDSGGHVLGLVPTPHTASNCTFDLVQRRLFITGGSTLWLLDLQR
protein production: failed

MAIRSALMNVMLIAVKKAAKGLVRDFGELENLQVSRKGPSDFVSNADLKAEKILKAELRKARPAYSFLMEESGAEDGADTSRRWIVDPLDGTTNFLHGIPHFAISVALEEKGEIVAGVIYNPILDELYTAEKGNGAFVNDRRLRVSGRRDLAESLFATGIPFQGKGGHARFLGQLAKVMAKTSGVRRIGAASLDLAYVAAGRVDGYWEEGLHPWDCAAGILLVKEAGGYVTTLDGKPDPLRQGSLLAANPLMHPLLGELLAEE
protein production: failed

SKQDASRNAAYTVDCEDYVHVVEFNPFENGDSGNLIAYGGNNYVVIGTCTFQEEEADVEGIQYKTLRTFHHGVRVDGIAWSPETRLDSLPPVIKFCTSAADMKIRLFTSDLQDKNEYKVLEGHTDFINGLVFDPKEGQEIASVSDDHTCRIWNLEGVQTAHFVLHSPGMSVCWHPEETFKLMVAEKNGTIRFYDLLAQQAILSLESEQVPLMSAHWCLKNTFKVGAVAGNDWLIWDITRSSYPQNKRPVHMDRACLFRWSTISENLFATTGYPGKMASQFQIHHLGHPQPILMGSVAVGSGLSWHRTLPLCVIGGDHKLLFWVTEV
protein production: not failed

GGRRWNWVQSWPVWKYFKEYFPICLVKTQDLDPGHNYIFGFHPHGIFVPGAFGNFCTKYSDFKKLFPGFTSYLHVAKIWFCFPLFREYLMSNGPVSVSKESLSHVLSKDGGGNVSIIVLGGAKEALEAHPGTFTLCIRQRKGFVKMALTHGASLVPVFSFGENDLYKQINNPKGSWLRTIQDAMYDSMGVALPLIYARGIFQHYFGIMPYRKLIYTVVGRPIPVQQILNPTSEQIEELHQTYLEELKKLFNEHKGKYGIPEHETLVFK
protein production: failed

MSSKGEGSSSTAEREVKKQVASVIPVTRKLVKTMAAKAIISALTPSGCGRHSDSTGDGKELKPFKKKEGSVIPKERELVKTKAAKAIFSLFRPSCDGKQSSQPSRDGDGDHDGKRVYPTRY
protein production: failed

RGRYRQYNSEILEEAISVVMSGKMSVSKAQSIYGIPHSTLEYKVKERLGTLKNPPKKKMKLMR
protein production: not failed

VNELLHLAPNVWPRNTTRDEVGVVCIAGIPLTQLAQEYGTPLFVIDEDDFRSRCRETAAAFGSGANVHYAAKAFLCSEVARWISEEGLCLDVCTGGELAVALHASFPPERITLHGNNKSVSELTAAVKAGVGHIVVDSMTEIERLDAIAGEAGIVQDVLVRLTVGVEAHTHEFISTAHEDQKFGLSVASGAAMAAVRRVFATDHLRLVGLHSHIGSQIFDVDGFELAAHRVIGLLRDVVGEFGPEKTAQIATVDLGGGLGISYLPSDDPPPIAELAAKLGTIVSDESTAVGLPTPKLVVEPGRAIAGPGTITLYEVGTVKDVDVSATAHRRYVSVDGGMSDNIRTALYGAQYDVRLVSRVSDAPPVPARLVGKHCESGDIIVRDTWVPDDIRPGDLVAVAATGAYCYSLSSRYNMVGRPAVVAVHAGNARLVLRRETVDDLLSLEVR
protein production: not failed

MASSTDQNLMDLSDKDTREKLSFWDRRVDPMAPLTDRQTDSILELRAAAEETLLPAELPIEDICSLSSRSLRSSFTAALPESTEEVLLQGFQMLELHNHRIETAQQFFSWFSKLQVQMDQDEASKYRKTRDVLNGYQEQCDAILNDVNTALDHLDSLQKQYLFVSTKTGTLHEACEQLLKEQSELVDLAESIQEKLSYFNELENINTKLNSPTLSVNSEGFVPMLSKLDECIEYVSSHPNFKDYPVYLTKFKQCLSKAMQLIKSHTVNTLQNLTGQLSKRDPLGAPSA
protein production: failed

MAEKLLHTAESDAGIGSWVLHMESGRLEWSQAVHDIFGTDSATFDATEDAYFQRVHPDDRARVRRELDRHVLGDRPFDVEYRIVRPDGQVRELLERNHIQRQASGQVDHLWGTVIDMTEHKQ
protein production: not failed

Reference: a protein production outcome set (Wang et al. 2014)
